Drawing on PMC10951265, this text covers stoichiometry N for 2 substances.

The term stoichiometry N denotes a count of units in the complex or per binding partner.

In assay [1] the target is PorXFj (Fjoh_2906), the Flavobacterium johnsoniae PorX homolog, purified, not phosphorylated (Flavobacterium johnsoniae) (UniProt A5FFU4). The assay can be described thus: SEC; PorXFj 1.6 mg/mL incubated 1 h at RT with 100 uM MnCl2; Superdex 200 Increase 10/300 GL in PBS with 100 uM MnCl2. Background: SEC sorts molecules by how far they enter the pores of the column.
For assay [2] the target is unchanged. Nature of the assay: SEC-MALS; PorXFj 1.6 mg/mL incubated 1 h at RT with 100 uM ZnCl2; column equilibrated in PBS only.
For assay [3] the target is unchanged. The assay can be described thus: SEC; PorXFj 1.6 mg/mL incubated 1 h at RT with 100 uM CuCl2; Superdex 200 Increase 10/300 GL in PBS with 100 uM CuCl2.
The target is the same in assay [4]. Nature of the assay: SEC; PorXFj 1.6 mg/mL incubated 1 h at RT with 100 uM ZnCl2; Superdex 200 Increase 10/300 GL in PBS with 100 uM ZnCl2.
For assay [5], the target named is phosphorylated PorXFj (PorXFj incubated with acetyl phosphate and MgCl2) (Flavobacterium johnsoniae) (UniProt A5FFU4). Nature of the assay: SEC-MALS; PorXFj 1.6 mg/mL incubated 1 h at RT with 20 mM AcP + 10 mM MgCl2; Superdex 200 Increase 10/300 GL in PBS.

With “PorXFj (Fjoh_2906), the Flavobacterium johnsoniae PorX homolog, purified, not phosphorylated (from UniProt A5FFU4 1-517) (natural protein)”, the stoichiometry N in assay [1], in assay [2], in assay [3] and in assay [4] was 2 in each case.

“phosphorylated PorXFj (PorXFj incubated with acetyl phosphate and MgCl2) (from UniProt A5FFU4 1-517) (natural protein)”: the stoichiometry N in assay [5] came to 2.
